B1: FumA (Escherichia coli K-12) (protein)
chain: SNKPFHYQAPFPLKKDDTEYYLLTSEHVSVSEFEGQEILKVAPEALTLLARQAFHDASFMLRPAHQQQVADILRDPEASENDKYVALQFLRNSDIAAKGVLPTCQDTGTAIIVGKKGQRVWTGGGDEAALARGVYNTYIEDNLRYSQNAPLDMYKEVNTGTNLPAQIDLYAVDGDEYKFLCIAKGGGSANKTYLYQETKALLTPGKLKNYLVEKMRTLGTAACPPYHIAFVIGGTSAETNLKTVKLASAKYYDELPTEGNEHGQAFRDVELEKELLIEAQNLGLGAQFGGKYFAHDIRVIRLPRHGASCPVGMGVSCSADRNIKAKINRQGIWIEKLEHNPGKYIPEELRKAGEGEAVRVDLNRPMKEILAQLSQYPVSTRLSLNGTIIVGRDIAHAKLKERMDNGEGLPQYIKDHPIYYAGPAKTPEGYASGSLGPTTAGRMDSYVDQLQAQGGSMIMLAKGNRSQQVTDACKKHGGFYLGSIGGPAAVLAQGSIKSLECVEYPELGMEAIWKIEVEDFPAFILVDDKGNDFFQQIQLTQCTRCVK
B2: Fumarase B (FumB) from Escherichia coli (enzyme, E. coli, UniProt P14407 1-548, looked up)
chain: MSNKPFIYQAPFPMGKDNTEYYLLTSDYVSVADFDGETILKVEPEALTLLAQQAFHDASFMLRPAHQKQVAAILHDPEASENDKYVALQFLRNSEIAAKGVLPTCQDTGTAIIVGKKGQRVWTGGGDEETLSKGVYNTYIEDNLRYSQNAALDMYKEVNTGTNLPAQIDLYAVDGDEYKFLCVAKGGGSANKTYLYQETKALLTPGKLKNFLVEKMRTLGTAACPPYHIAFVIGGTSAETNLKTVKLASAHYYDELPTEGNEHGQAFRDVQLEQELLEEAQKLGLGAQFGGKYFAHDIRVIRLPRHGASCPVGMGVSCSADRNIKAKINREGIWIEKLEHNPGQYIPQELRQAGEGEAVKVDLNRPMKEILAQLSQYPVSTRLSLTGTIIVGRDIAHAKLKELIDAGKELPQYIKDHPIYYAGPAKTPAGYPSGSLGPTTAGRMDSYVDLLQSHGGSMIMLAKGNRSQQVTDACHKHGGFYLGSIGGPAAVLAQQSIKHLECVAYPELGMEAIWKIEVEDFPAFILVDDKGNDFFQQIVNKQCANCTK
notes: FumB, class I [4Fe-4S] fumarase of E. coli; the gene from plasmid pGS56 was cloned into pET15b; After nickel column purification the enzyme held [3Fe-4S] clusters in only 10-25% of the protein, the rest being apoprotein; also called fumarate hydratase class I, anaerobic; source: E. coli BL21(DE3), pET15b-FumB, purified (nickel sepharose column)

Legend:
FumA = FumA (Escherichia coli, UniProt P0AC33); experiment: fumarate depletion at […] nm, Michaelis-Menten fit; format: biochemical; details: anaerobic, 100 mM EPPS pH 8, 5% glycerol, 0.5 mM DTT, 37 °C; regenerated [4Fe-4S] enzyme
FumB = target: T1, FumB (Escherichia coli, UniProt P14407); experiment: fumarate depletion at […] nm, Michaelis-Menten fit; format: biochemical; details: anaerobic, 100 mM EPPS pH 8, 5% glycerol, 0.5 mM DTT, 37 °C; regenerated [4Fe-4S] enzyme
T1 construct: full length, N-terminal His-tag (pET15b, gene from plasmid pGS56), expressed in E. coli BL21(DE3); [4Fe-4S] cluster regenerated with Fe2+ and L-cysteine; homodimer circa 120 kDa

purified protein [1] = substrate: O=C(O)C(O)C(O)C(=O)O; experiment: purified protein; details: anaerobic, 100 mM EPPS pH 8, 5% glycerol, 0.5 mM DTT, 100 µM NADH, 1 mM MgCl2, 37 °C, regenerated [4Fe-4S] enzyme
purified protein [2] = substrate: O=C(O)C[C@H](O)C(=O)O; experiment: purified protein; details: anaerobic, 100 mM EPPS pH 8, 5% glycerol, 0.5 mM DTT, 37 °C, regenerated [4Fe-4S] enzyme
[3] = target: the molecule itself; experiment: SEC; Superdex 200, to estimate the molecular weight of the native enzyme; data not shown

Row | Molecule | Km (FumA) [µM] | Km (FumB) [µM] | Km (purified protein [1]) [µM] | Vmax (purified protein [1]) | kcat/Km (purified protein [1]) | Km (purified protein [2]) [µM] | Vmax (purified protein [2]) | kcat/Km (purified protein [2]) | stoichiometry N [3]
1 | O=C(O)/C=C/C(=O)O [fumarate] | 460 ± 80 | 320 ± 40 |  |  |  |  |  |  | 
2 | B1 |  |  | 800 ± 300 | 2.3±0.3 umol product/minute/mg enzyme | (3±1)⋅10^3 s^-1 M^-1 | 700 ± 100 | (7.2±0.4)·10^2 umol product/minute/mg enzyme | (1.0±0.2)⋅10^6 s^-1 M^-1 | 
3 | B2 |  |  | 800 ± 100 | 9.2±0.4 umol product/minute/mg enzyme | (12±2)⋅10^3 s^-1 M^-1 | 300 ± 70 | (4.9±0.3)·10^2 umol product/minute/mg enzyme | (1.6±0.4)⋅10^6 s^-1 M^-1 | 2
